Laboratory results as given in patent US20230235075A1 (DYNAMICURE BIOTECHNOLOGY, published 2023).
Each block holds one binder with its values, some of them ahead of it.

Tests used:
[1] = target: T1, Human CD93 on the cell surface (human CD93 expressing CHO cells; HUVEC, U937 and KG1a cells) (human, UniProt Q9NPY3 22-652); test: FACS, CHO cells overexpressing human CD93
T1 construct: whole, on cells; also called hCD93 CHO cells; CHO-hCD93
T1 sequence (looked up): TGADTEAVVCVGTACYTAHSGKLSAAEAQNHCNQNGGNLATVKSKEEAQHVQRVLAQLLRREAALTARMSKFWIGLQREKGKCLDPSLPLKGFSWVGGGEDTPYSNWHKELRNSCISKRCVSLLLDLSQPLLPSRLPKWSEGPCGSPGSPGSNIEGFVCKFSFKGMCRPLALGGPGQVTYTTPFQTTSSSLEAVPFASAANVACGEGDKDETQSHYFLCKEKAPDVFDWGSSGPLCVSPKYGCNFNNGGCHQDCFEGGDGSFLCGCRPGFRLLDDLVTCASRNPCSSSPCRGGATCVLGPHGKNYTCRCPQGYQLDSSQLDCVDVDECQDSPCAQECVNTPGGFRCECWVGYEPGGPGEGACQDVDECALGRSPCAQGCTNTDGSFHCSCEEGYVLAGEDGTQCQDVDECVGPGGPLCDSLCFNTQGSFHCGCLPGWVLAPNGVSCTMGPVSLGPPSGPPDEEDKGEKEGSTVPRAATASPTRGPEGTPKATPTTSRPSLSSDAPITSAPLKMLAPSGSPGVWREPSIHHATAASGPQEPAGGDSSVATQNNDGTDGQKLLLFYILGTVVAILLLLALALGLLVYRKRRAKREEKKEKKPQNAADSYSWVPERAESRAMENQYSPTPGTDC

[2] = target: T2, Human CD93 recombinant protein (Sino Biological Inc, Catalog #12589-H08H) (human, UniProt Q9NPY3 22-580, biotinylated with EZ-LINK NHS-PEG4 biotin in the Octet assays); test: ELISA, His-tagged human CD93 coated at 1 µg/mL
T2 construct: also called hCD93; His-tagged human CD93
T2 sequence (looked up): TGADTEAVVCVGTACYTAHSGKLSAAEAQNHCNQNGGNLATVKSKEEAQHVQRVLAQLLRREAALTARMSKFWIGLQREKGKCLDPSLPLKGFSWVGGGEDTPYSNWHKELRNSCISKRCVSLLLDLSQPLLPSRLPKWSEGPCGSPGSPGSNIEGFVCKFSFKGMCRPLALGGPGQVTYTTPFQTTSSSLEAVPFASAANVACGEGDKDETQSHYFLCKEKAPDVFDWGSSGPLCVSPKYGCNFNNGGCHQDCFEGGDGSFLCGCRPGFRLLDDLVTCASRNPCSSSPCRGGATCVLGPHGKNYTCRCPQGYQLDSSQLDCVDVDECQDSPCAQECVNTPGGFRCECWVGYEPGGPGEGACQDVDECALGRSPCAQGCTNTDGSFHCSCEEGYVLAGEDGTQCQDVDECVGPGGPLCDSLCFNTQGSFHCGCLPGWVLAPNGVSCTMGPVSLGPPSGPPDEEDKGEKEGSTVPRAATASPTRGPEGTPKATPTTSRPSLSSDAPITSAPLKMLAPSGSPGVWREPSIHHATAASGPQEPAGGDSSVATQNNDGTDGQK
Description: 17B10 antibody produced by hybridoma (17B10-Hyb in FIG. 33) was compared to recombinant parental 17B10-hFc (17B10-hIgG1 in FIG. 33) and humanized 17B10-mFc (h17B10-H3L3 in FIG. 33) to determine the binding to human CD93. His-tagged human CD93 was coated onto a 96 well plate at 1 μg/mL in 1×PBS overnight at 4° C. The plate was washed with ELISA wash buffer (Boston BioProduct, Inc.) and the wells were blocked with ELISA blocking buffer for 1 hour at 37° C. Purified 17B10 antibodies were serially diluted in ELISA blocking buffer (Boston BioProduct, Inc.) and incubated on the receptor for 1 hour at 37° C. The plate was washed with ELISA wash Buffer. HRP conjugated Anti-mouse Fc was diluted in ELISA blocking buffer and added to the wells containing the hybridoma produced 17B10. HRP conjugated anti-human Fc was added to the well containing the recombinant 17B10 antibodies for 1 hour at 37° C. The plate was washed with ELISA wash Buffer. HRP substrate was added for indirect detection of the antibodies binding to CD93.

[3] = target: T2, Human CD93 recombinant protein (Sino …); test: BLI (Octet QKe), biotinylated CD93 on streptavidin sensors
[4] = target: T1, Human CD93 on the cell surface (human …); test: summary table, column 'Binding' (assay not given)
[5] = target: T1, Human CD93 on the cell surface (human …); test: FACS, human CD93 expressing CHO cells, serially diluted antibody
Description: Binding of anti-CD93 antibodies 7F3 and 16E4 to cell surface expressing human CD93 CHO cells was determined by fluorescence activated cell sorting (FACS) assay. Human CD93 expressing CHO cells were detached by incubation with TrypLE reagents (Thermo Fisher), which preserves the integrity of CD93 on the cell surface. Then the cells were incubated with serially diluted anti-CD93 antibodies for 30 minutes in 4° C. After washing by FACS buffer, the cells were incubated with Alexa Fluor 647 conjugated anti-human IgG (Jackson ImmunoResearch) for 30 minutes in 4° C. After washing by FACS buffer twice, the samples were acquired in NovoCyte Flow Cytometer and analyzed by NovoExpress software.

[6] = target: T1, Human CD93 on the cell surface (human …); test: flow cytometry, primary HUVEC cells, with and without human serum
Description: Recombinant parental anti-CD93 antibodies were evaluated for their ability to bind to HUVEC cells in the presence or absence of human serum. The 16E4, 7F3, 16A1, and 17B10 sequences obtained from the hybridoma cells were expressed recombinantly with a human CH1 domain and mouse IgG1 CH2 and CH3 Fc domains. Antibodies were purified using Protein G Sepharose. The resulting antibodies were tested for its binding capacity to a variety of cells that express CD93. […] Cells were quenched with media then counted. Cells were resuspended in FACS buffer (ice cold PBS with 0.5% BSA) and human serum was added to 20% (10% final volume) and put on ice for approximately 20 minutes. 5×10⁴ cells were seeded per well in 100 μL media and incubated with serial diluted anti-CD93 antibodies in 100 μL on ice for 2 hours. Cells were then washed by spinning cells at 1200 rpm for 5 min. Media was discarded and cells were resuspended in 200 μL ice cold FACS buffer. The wash step was repeated and cells were resuspended in 100 μL of secondary antibody, AlexaFluor647 conjugated anti-human IgG or anti-mouse IgG antibodies (Jackson ImmunoResearch), diluted 1:500 in FACS buffer. Plates were blocked from light and incubated 1 hour at 4° C. […] Samples were stored at 4° C. covered in foil, then were acquired in NovoCyte Flow Cytometer and analyzed by NovoExpress software.

EC50 [5]: 0.4 nM
B3: 7F3-hIgG1 (antibody, V domains shown)
VH: QVQLQQSGADLVRPGASVKLSCKASGYTFTDYEMHWVKQTPVYGLEWIGGIDPETGDTAYNQNFKGKATLTADKSSSAAYMELRSLTSEDSAVYYCTNYGNLYYYAMDYWGQGTSVTVSS
VL: ENVLTQSPAIMSASPGEKVTMTCRASSSVSSSYLHWYQQKSGASPKLWIYSTSNLAFGVPARFSGSGSGTSYSLTISSVEAEDAATYYCQQYSGYPLTFGSGTKLEIK
notes: the same paragraph also calls it 'humanized'; also called recombinant 7F3 antibody; recombinant chimeric 7F3

binding result [2]: binds
B6: recombinant parental 17B10-hFc (antibody, human IgG1, V domains shown)
VH: QVQLQQSGPELVKPGASVKISCKASGYAFSSYWLNWVKQRPGKGLEWFGRIYPGDGDTDYNGKFKGKATLTADKSSSTAYMQLRSLTSEDSAVYFCVRGDGYWAMDYWGQGTSVTVSS
VL: DIVMTQAAFSNPVTLGTSASISCRFSKSLLHSNGITYLYWYLQKPGQSPQLLIYQMSNLASGVPDRFSSSGSGTDFTLRISRVEAEDVGVYYCAQNLELPWTFGGGTKLEIK
notes: also called 17B10-hIgG1; recombinant parental 17B10 with the human Fc

Second part, the binder before the results:

B1: Humanized 17B10 (VH3VL3, i.e., H3L3) (antibody, mouse IgG1, V domains shown)
VH: QVQLVQSGPEVKKPGESLKISCKASGYAFSSYWLNWVRQMPGKGLEWMGRIYPGDGDTDYNGKFKGQVTISADKSSGTAYLQLSSLKASDTAVYFCVRGDGYWAMDYWGQGTLVTVSS
VL: DIVMTQSPDSLAVSLGERATINCRFSKSLLHSNGITYLYWYQQKPGQPPKLLIYQMSNLASGVPDRFSGSGSGTDFTLTISSLQAEDVAVYYCAQNLELPWTFGGGTKLEIK
notes: also called h17B10-H3L3; humanized 17B10-mFc
binding result [1]: binds | binding result [2]: binds

B2: 10B1 (antibody, V domains shown)
VH: QVQLKQSGPGLVQPSQSLSITCTVSDFSLSSFGVNWVRQPPGKGLEWLGVIWSGGSTDYNVAFISRLSISKDNSKSQVFFKMNNLQADDTAIYYCARNWRYDGYFYAMDYWGQGTSVTVSS
VL: DIVMTQSQKFMSTSTGDRVSVTCKASQNVGTNVAWYQQKPGQSPKALIYSASYRFIGVPDRFTGSGSGTDFTLTITNVQSEDLAEYFCQQYNRNPITFGSGTKLEIK
notes: Mouse hybridoma monoclonal antibody; also called 10B1 mAb
binding result [3]: binds | binding result [4]: binds

B4: 16E4-hIgG1 (antibody, V domains shown)
VH: QVQLQQPGAELVKPGASVKLSCKASGYTFTSYWMHWVKQRPGQGLEWIGEIDPSASYTYYNQKFKGKATLTVDKSSSTAYMQLSSLTSEDSAVYYCARSVYYGNKYFDVWGAGTTVTVSS
VL: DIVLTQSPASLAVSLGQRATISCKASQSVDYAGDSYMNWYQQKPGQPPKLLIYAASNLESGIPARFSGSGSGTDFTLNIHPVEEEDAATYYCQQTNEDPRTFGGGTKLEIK
notes: the same paragraph also calls it 'humanized'; also called recombinant 16E4; recombinant chimeric 16E4
EC50 [5]: 0.24 nM

B5: 17B10 (hybridoma) (antibody, V domains shown)
VH: QVQLQQSGPELVKPGASVKISCKASGYAFSSYWLNWVKQRPGKGLEWFGRIYPGDGDTDYNGKFKGKATLTADKSSSTAYMQLRSLTSEDSAVYFCVRGDGYWAMDYWGQGTSVTVSS
VL: DIVMTQAAFSNPVTLGTSASISCRFSKSLLHSNGITYLYWYLQKPGQSPQLLIYQMSNLASGVPDRFSSSGSGTDFTLRISRVEAEDVGVYYCAQNLELPWTFGGGTKLEIK
notes: Mouse hybridoma monoclonal antibody, purified over Protein G
binding result [2]: binds | binding result [4]: binds

B7: Recombinant parental 17B10 (human CH1 domain, mouse IgG1 CH2 and CH3 Fc domains) (antibody, V domains shown)
VH: QVQLQQSGPELVKPGASVKISCKASGYAFSSYWLNWVKQRPGKGLEWFGRIYPGDGDTDYNGKFKGKATLTADKSSSTAYMQLRSLTSEDSAVYFCVRGDGYWAMDYWGQGTSVTVSS
VL: DIVMTQAAFSNPVTLGTSASISCRFSKSLLHSNGITYLYWYLQKPGQSPQLLIYQMSNLASGVPDRFSSSGSGTDFTLRISRVEAEDVGVYYCAQNLELPWTFGGGTKLEIK
binding result [6]: binds
